Experimental data from US20140087995A1 (published 2014).
Numbered stars: 1 amine (or outer) side, 2 acyl side, 3 side chain; on linkers, the order of the positions; unused ones are H or OH. Bridge positions count the residues as written; N and C are the ends. Side chains are listed from the residue outwards. Ends that are not written are not given here. * marks the point of attachment. C20 diacid = O=C(O)CCCCCCCCCCCCCCCCCCC(=O)*; γGlu = O=C(O)[C@H](CCC(=O)[*:2])N[*:1]

Columns and labels:
[1] = target: T1, rat calcitonin receptor (rat, UniProt P32214 25-516); experiment: ratio IC50 rat calcitonin receptor / IC50 rat amylin receptor (reference)
T1 construct: whole, on cells; Membranes of transiently transfected BHK tk'ts 13 cells (Assay VIII); also called rCTR
T1 sequence (looked up): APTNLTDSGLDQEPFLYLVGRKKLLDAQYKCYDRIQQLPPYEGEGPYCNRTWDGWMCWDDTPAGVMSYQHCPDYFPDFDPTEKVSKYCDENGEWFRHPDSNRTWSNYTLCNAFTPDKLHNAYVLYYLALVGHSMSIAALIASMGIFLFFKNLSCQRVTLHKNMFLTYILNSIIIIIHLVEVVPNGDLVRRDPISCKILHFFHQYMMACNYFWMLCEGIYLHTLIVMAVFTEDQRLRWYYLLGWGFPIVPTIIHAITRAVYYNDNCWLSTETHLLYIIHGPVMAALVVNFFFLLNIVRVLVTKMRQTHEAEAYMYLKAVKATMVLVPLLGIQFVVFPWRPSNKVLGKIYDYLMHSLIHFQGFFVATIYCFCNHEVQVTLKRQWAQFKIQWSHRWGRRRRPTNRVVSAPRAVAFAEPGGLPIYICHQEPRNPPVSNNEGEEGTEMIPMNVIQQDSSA

[2] = target: T2, human calcitonin receptor (human, UniProt P30988 25-474); experiment: ratio IC50 human calcitonin receptor / IC50 human amylin receptor (reference)
T2 construct: whole, on cells; Membranes of a stably transfected BHK cell line (Assay VII); also called hCTR; hCT
T2 sequence (looked up): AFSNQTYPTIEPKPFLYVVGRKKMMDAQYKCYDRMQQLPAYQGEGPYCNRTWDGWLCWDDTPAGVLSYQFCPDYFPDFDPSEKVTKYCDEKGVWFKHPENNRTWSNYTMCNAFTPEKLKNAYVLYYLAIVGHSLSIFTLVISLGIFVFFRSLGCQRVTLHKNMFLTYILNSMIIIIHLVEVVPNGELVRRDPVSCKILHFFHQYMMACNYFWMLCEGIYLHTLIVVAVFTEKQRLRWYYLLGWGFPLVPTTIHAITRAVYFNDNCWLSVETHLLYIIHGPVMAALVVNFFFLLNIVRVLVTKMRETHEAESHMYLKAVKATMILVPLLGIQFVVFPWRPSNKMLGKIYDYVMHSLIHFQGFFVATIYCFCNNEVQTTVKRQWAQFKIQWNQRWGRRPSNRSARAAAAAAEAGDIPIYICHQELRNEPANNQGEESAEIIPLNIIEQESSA
How it was run: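 Membranes (35 ng/μL final) + SPA beads, 50 mM Hepes pH 7.4 buffer with 1 mM CaCl2, 5 mM MgCl₂, 0.1% OA, 0.02% Tween20; 120 min, 25° C, shaking; centrifuged, counted; IC₅₀ by one-site binding competition.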

[3] = target: T1, rat calcitonin receptor; experiment: SPA competition with 125I-calcitonin, membranes of BHK cells with rat calcitonin receptor (Assay VIII)
[4] = target: T3, rat amylin receptor (rat calcitonin receptor + rat RAMP 3) (rat, UniProt P32214 25-516; Q9JJ73 23-147); experiment: SPA competition with 125I-rat amylin, membranes of BHK cells with rat calcitonin receptor + rat RAMP3 (Assay VI)
T3 construct: whole, on cells; Membranes of transiently transfected BHK tk'ts 13 cells (Assay VI); also called rAmylin-R; rat amylin 3(a) receptor
T3 sequence (looked up) 1: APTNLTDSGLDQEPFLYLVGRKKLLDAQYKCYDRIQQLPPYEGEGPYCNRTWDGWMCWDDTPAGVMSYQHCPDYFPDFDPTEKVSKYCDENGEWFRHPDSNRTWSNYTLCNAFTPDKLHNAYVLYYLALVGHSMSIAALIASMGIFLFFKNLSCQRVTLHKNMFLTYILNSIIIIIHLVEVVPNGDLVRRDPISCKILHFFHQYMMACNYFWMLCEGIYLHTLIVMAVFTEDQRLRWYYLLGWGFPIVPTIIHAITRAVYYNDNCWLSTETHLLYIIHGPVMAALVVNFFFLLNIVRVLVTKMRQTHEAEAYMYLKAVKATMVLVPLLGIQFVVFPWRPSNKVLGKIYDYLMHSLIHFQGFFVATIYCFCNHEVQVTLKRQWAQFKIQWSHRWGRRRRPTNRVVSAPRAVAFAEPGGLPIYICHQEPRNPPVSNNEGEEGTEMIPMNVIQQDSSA
T3 sequence (looked up) 2: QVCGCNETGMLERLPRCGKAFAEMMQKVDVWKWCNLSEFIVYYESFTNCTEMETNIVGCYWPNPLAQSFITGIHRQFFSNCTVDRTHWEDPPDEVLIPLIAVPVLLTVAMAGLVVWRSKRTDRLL

Row | Binder | Ratio rCT/rAmylin binding [1] | Ratio hCT/hAmylin binding [2] | IC50 [3] | IC50 [4]
1 | K([γGlu-C20 diacid])CNTATCATQRLAEFLRHSSPNFGAIPSSTNVGPNTP-NH2 (disulfide 2-7; N-terminus assumed; SMILES CC[C@H](C)[C@H](NC(=O)[C@H](C)NC(=O)CNC(=O)[C@H](Cc1ccccc1)NC(=O)[C@H](CC(N)=O)NC(=O)[C@@H]1CCCN1C(=O)[C@H](CO)NC(=O)[C@H](CO)NC(=O)[C@H](Cc1c[nH]cn1)NC(=O)[C@H](CCCNC(=N)N)NC(=O)[C@H](CC(C)C)NC(=O)[C@H](Cc1ccccc1)NC(=O)[C@H](CCC(=O)O)NC(=O)[C@H](C)NC(=O)[C@H](CC(C)C)NC(=O)[C@H](CCCNC(=N)N)NC(=O)[C@H](CCC(N)=O)NC(=O)[C@@H](NC(=O)[C@H](C)NC(=O)[C@@H]1CSSC[C@H](NC(=O)[C@@H](N)CCCCNC(=O)CC[C@H](NC(=O)CCCCCCCCCCCCCCCCCCC(=O)O)C(=O)O)C(=O)N[C@@H](CC(N)=O)C(=O)N[C@@H]([C@@H](C)O)C(=O)N[C@@H](C)C(=O)N[C@@H]([C@@H](C)O)C(=O)N1)[C@@H](C)O)C(=O)N1CCC[C@H]1C(=O)N[C@@H](CO)C(=O)N[C@@H](CO)C(=O)N[C@H](C(=O)N[C@@H](CC(N)=O)C(=O)N[C@H](C(=O)NCC(=O)N1CCC[C@H]1C(=O)N[C@@H](CC(N)=O)C(=O)N[C@H](C(=O)N1CCC[C@H]1C(N)=O)[C@@H](C)O)C(C)C)[C@@H](C)O) | 1.1 | 0.5 | 0.206 nM | 0.188 nM
2 | K([γGlu-C20 diacid])CNTATCATQRLAHFLRHSSPNFGAIPSSTNVGPNTP-NH2 (disulfide 2-7; N-terminus assumed; SMILES CC[C@H](C)[C@H](NC(=O)[C@H](C)NC(=O)CNC(=O)[C@H](Cc1ccccc1)NC(=O)[C@H](CC(N)=O)NC(=O)[C@@H]1CCCN1C(=O)[C@H](CO)NC(=O)[C@H](CO)NC(=O)[C@H](Cc1c[nH]cn1)NC(=O)[C@H](CCCNC(=N)N)NC(=O)[C@H](CC(C)C)NC(=O)[C@H](Cc1ccccc1)NC(=O)[C@H](Cc1c[nH]cn1)NC(=O)[C@H](C)NC(=O)[C@H](CC(C)C)NC(=O)[C@H](CCCNC(=N)N)NC(=O)[C@H](CCC(N)=O)NC(=O)[C@@H](NC(=O)[C@H](C)NC(=O)[C@@H]1CSSC[C@H](NC(=O)[C@@H](N)CCCCNC(=O)CC[C@H](NC(=O)CCCCCCCCCCCCCCCCCCC(=O)O)C(=O)O)C(=O)N[C@@H](CC(N)=O)C(=O)N[C@@H]([C@@H](C)O)C(=O)N[C@@H](C)C(=O)N[C@@H]([C@@H](C)O)C(=O)N1)[C@@H](C)O)C(=O)N1CCC[C@H]1C(=O)N[C@@H](CO)C(=O)N[C@@H](CO)C(=O)N[C@H](C(=O)N[C@@H](CC(N)=O)C(=O)N[C@H](C(=O)NCC(=O)N1CCC[C@H]1C(=O)N[C@@H](CC(N)=O)C(=O)N[C@H](C(=O)N1CCC[C@H]1C(N)=O)[C@@H](C)O)C(C)C)[C@@H](C)O) | 3 | 1.2 | 0.371 nM | 0.125 nM
3 | K([γGlu-C20 diacid])CNTATCATQRLAHFLRHSSPNFGAIPSSTNVGRNTY-NH2 (disulfide 2-7; N-terminus assumed; SMILES CC[C@H](C)[C@H](NC(=O)[C@H](C)NC(=O)CNC(=O)[C@H](Cc1ccccc1)NC(=O)[C@H](CC(N)=O)NC(=O)[C@@H]1CCCN1C(=O)[C@H](CO)NC(=O)[C@H](CO)NC(=O)[C@H](Cc1c[nH]cn1)NC(=O)[C@H](CCCNC(=N)N)NC(=O)[C@H](CC(C)C)NC(=O)[C@H](Cc1ccccc1)NC(=O)[C@H](Cc1c[nH]cn1)NC(=O)[C@H](C)NC(=O)[C@H](CC(C)C)NC(=O)[C@H](CCCNC(=N)N)NC(=O)[C@H](CCC(N)=O)NC(=O)[C@@H](NC(=O)[C@H](C)NC(=O)[C@@H]1CSSC[C@H](NC(=O)[C@@H](N)CCCCNC(=O)CC[C@H](NC(=O)CCCCCCCCCCCCCCCCCCC(=O)O)C(=O)O)C(=O)N[C@@H](CC(N)=O)C(=O)N[C@@H]([C@@H](C)O)C(=O)N[C@@H](C)C(=O)N[C@@H]([C@@H](C)O)C(=O)N1)[C@@H](C)O)C(=O)N1CCC[C@H]1C(=O)N[C@@H](CO)C(=O)N[C@@H](CO)C(=O)N[C@H](C(=O)N[C@@H](CC(N)=O)C(=O)N[C@H](C(=O)NCC(=O)N[C@@H](CCCNC(=N)N)C(=O)N[C@@H](CC(N)=O)C(=O)N[C@H](C(=O)N[C@@H](Cc1ccc(O)cc1)C(N)=O)[C@@H](C)O)C(C)C)[C@@H](C)O, also called compound 85) | 46.5 | 91.8 | 146 nM | 3.14 nM
4 | K([γGlu-C20 diacid])CNTATCATQRLAHFLRHSSPNFGAIPSSTPVGPNTY-NH2 (disulfide 2-7; N-terminus assumed; SMILES CC[C@H](C)[C@H](NC(=O)[C@H](C)NC(=O)CNC(=O)[C@H](Cc1ccccc1)NC(=O)[C@H](CC(N)=O)NC(=O)[C@@H]1CCCN1C(=O)[C@H](CO)NC(=O)[C@H](CO)NC(=O)[C@H](Cc1c[nH]cn1)NC(=O)[C@H](CCCNC(=N)N)NC(=O)[C@H](CC(C)C)NC(=O)[C@H](Cc1ccccc1)NC(=O)[C@H](Cc1c[nH]cn1)NC(=O)[C@H](C)NC(=O)[C@H](CC(C)C)NC(=O)[C@H](CCCNC(=N)N)NC(=O)[C@H](CCC(N)=O)NC(=O)[C@@H](NC(=O)[C@H](C)NC(=O)[C@@H]1CSSC[C@H](NC(=O)[C@@H](N)CCCCNC(=O)CC[C@H](NC(=O)CCCCCCCCCCCCCCCCCCC(=O)O)C(=O)O)C(=O)N[C@@H](CC(N)=O)C(=O)N[C@@H]([C@@H](C)O)C(=O)N[C@@H](C)C(=O)N[C@@H]([C@@H](C)O)C(=O)N1)[C@@H](C)O)C(=O)N1CCC[C@H]1C(=O)N[C@@H](CO)C(=O)N[C@@H](CO)C(=O)N[C@H](C(=O)N1CCC[C@H]1C(=O)N[C@H](C(=O)NCC(=O)N1CCC[C@H]1C(=O)N[C@@H](CC(N)=O)C(=O)N[C@H](C(=O)N[C@@H](Cc1ccc(O)cc1)C(N)=O)[C@@H](C)O)C(C)C)[C@@H](C)O) | 72.4 | 24.8 | 9.05 nM | 0.125 nM
5 | K([γGlu-γGlu-C20 diacid])CNTATCATQRLANFLRHSSPNFGAIPSSTNVGHNTY-NH2 (disulfide 2-7; N-terminus assumed; SMILES CC[C@H](C)[C@H](NC(=O)[C@H](C)NC(=O)CNC(=O)[C@H](Cc1ccccc1)NC(=O)[C@H](CC(N)=O)NC(=O)[C@@H]1CCCN1C(=O)[C@H](CO)NC(=O)[C@H](CO)NC(=O)[C@H](Cc1c[nH]cn1)NC(=O)[C@H](CCCNC(=N)N)NC(=O)[C@H](CC(C)C)NC(=O)[C@H](Cc1ccccc1)NC(=O)[C@H](CC(N)=O)NC(=O)[C@H](C)NC(=O)[C@H](CC(C)C)NC(=O)[C@H](CCCNC(=N)N)NC(=O)[C@H](CCC(N)=O)NC(=O)[C@@H](NC(=O)[C@H](C)NC(=O)[C@@H]1CSSC[C@H](NC(=O)[C@@H](N)CCCCNC(=O)CC[C@H](NC(=O)CC[C@H](NC(=O)CCCCCCCCCCCCCCCCCCC(=O)O)C(=O)O)C(=O)O)C(=O)N[C@@H](CC(N)=O)C(=O)N[C@@H]([C@@H](C)O)C(=O)N[C@@H](C)C(=O)N[C@@H]([C@@H](C)O)C(=O)N1)[C@@H](C)O)C(=O)N1CCC[C@H]1C(=O)N[C@@H](CO)C(=O)N[C@@H](CO)C(=O)N[C@H](C(=O)N[C@@H](CC(N)=O)C(=O)N[C@H](C(=O)NCC(=O)N[C@@H](Cc1c[nH]cn1)C(=O)N[C@@H](CC(N)=O)C(=O)N[C@H](C(=O)N[C@@H](Cc1ccc(O)cc1)C(N)=O)[C@@H](C)O)C(C)C)[C@@H](C)O, also called compound 86) | 126 | 159 | 352 nM | 2.8 nM
